Assay results taken from US20230407373A1 (priority 2020, published 2023).
Like-named read-outs stand apart in the source and are kept apart here.

Experiments:
Format in all cases: binding
SARS-CoV-2 gRNA = details: […]; LC-MS/MS; Probe I sample (first 199 lines of Table 2)
[1] = tested on: SARS-CoV-2 gRNA and sgRNAs; details: for target (unweighted spectral count in RNP capture): Probe II capture, LC-MS/MS LFQ; for background (unweighted spectral count in control): no-probe control pull-down, used as background for Probe II
gRNA of HCoV-OC43 = details: for target (spectral count, OC43 Probe I RNP capture) / background (spectral count, no-probe control): type n_48_v: 48 hours post-infection; for target (spectral count, OC43 Probe I RNP capture): infected cells, unweighted spectral count; for background (spectral count, no-probe control): no-probe control on infected cells; for target (spectral count) / background (spectral count): type g_36_m, 36 hpi, Probe I; for target (spectral count): HCoV-OC43-infected HCT-8 cells; for background (spectral count): uninfected-probe control
HCoV-OC43 gRNA and sgRNA = details: for target (unweighted spectral count, OC43 Probe II capture) / target (spectral count) / background (spectral count): 36 hpi; for target (unweighted spectral count, OC43 Probe II capture): type n_36_v, FDR<10%; for target (unweighted spectral count, OC43 Probe II capture) / target (unweighted spectral count): tested against no-probe control; for target (unweighted spectral count): OC43 Probe II, infected cells; for target (unweighted spectral count, OC43 Probe II) / background (unweighted spectral count, no-probe control): type n_48_v, 48 hpi; for target (unweighted spectral count, OC43 Probe II): OC43 Probe II capture on infected cells; for background (unweighted spectral count, no-probe control): no-probe control on infected cells; for target (spectral count) / background (spectral count): type s_36_m, Probe II; for target (spectral count): HCoV-OC43-infected HCT-8 cells; for background (spectral count): uninfected-probe control

Row | Molecule | target (unweighted spectral count of the protein in the RNP capture) (SARS-CoV-2 gRNA) | target (unweighted spectral count in RNP capture) [1] | background (unweighted spectral count in control) [1] | target (spectral count, OC43 Probe I RNP capture) (gRNA of HCoV-OC43) | background (spectral count, no-probe control) (gRNA of HCoV-OC43) | target (unweighted spectral count, OC43 Probe II capture) (HCoV-OC43 gRNA and sgRNA) | target (unweighted spectral count) (HCoV-OC43 gRNA and sgRNA; 24 hpi (type n_24_v)) | target (unweighted spectral count, OC43 Probe II) (HCoV-OC43 gRNA and sgRNA) | background (unweighted spectral count, no-probe control) (HCoV-OC43 gRNA and sgRNA) | target (spectral count) (HCoV-OC43 gRNA and sgRNA) | background (spectral count) (HCoV-OC43 gRNA and sgRNA) | target (unweighted spectral count) (HCoV-OC43 gRNA and sgRNA; 12 hpi (type n_12_v)) | target (spectral count) (gRNA of HCoV-OC43) | background (spectral count) (gRNA of HCoV-OC43)
1 | TIAL1: host protein, UniProt Q01085 (protein, UniProt Q01085 1-375, looked up) Nucleolysin TIAR: MMEDDGQPRTLYVGNLSRDVTEVLILQLFSQIGPCKSCKMITEHTSNDPYCFVEFYEHRDAAAALAAMNGRKILGKEVKVNWATTPSSQKKDTSNHFHVFVGDLSPEITTEDIKSAFAPFGKISDARVVKDMATGKSKGYGFVSFYNKLDAENAIVHMGGQWLGGRQIRTNWATRKPPAPKSTQENNTKQLRFEDVVNQSSPKNCTVYCGGIASGLTDQLMRQTFSPFGQIMEIRVFPEKGYSFVRFSTHESAAHAIVSVNGTTIEGHVVKCYWGKESPDMTKNFQQVDYSQWGQWSQVYGNPQQYGQYMANGWQVPPYGVYGQPWNQQGFGVDQSPSAAWMGGFGAQPPQGQAPPPVIPPPNQAGYGMASYQTQ | 10 | 25 | 1 | 11 | 1 | 9 | 7 | 11 | 1 | 9 | 1 | – | – | –
2 | HNRNPH1 (protein, UniProt P31943 1-449, looked up) Heterogeneous nuclear …: MMLGTEGGEGFVVKVRGLPWSCSADEVQRFFSDCKIQNGAQGIRFIYTREGRPSGEAFVELESEDEVKLALKKDRETMGHRYVEVFKSNNVEMDWVLKHTGPNSPDTANDGFVRLRGLPFGCSKEEIVQFFSGLEIVPNGITLPVDFQGRSTGEAFVQFASQEIAEKALKKHKERIGHRYIEIFKSSRAEVRTHYDPPRKLMAMQRPGPYDRPGAGRGYNSIGRGAGFERMRRGAYGGGYGGYDDYNGYNDGYGFGSDRFGRDLNYCFSGMSDHRYGDGGSTFQSTTGHCVHMRGLPYRATENDIYNFFSPLNPVRVHIEIGPDGRVTGEADVEFATHEDAVAAMSKDKANMQHRYVELFLNSTAGASGGAYEHRYVELFLNSTAGASGGAYGSQMMGGMGLSNQSSYGGPASQQLSGGYGGGYGGQSSMSGYDQVLQENSSDFQSNIA | 78 | 61 | 1 | 49 | 6 | 36 | – | 53 | 6 | – | – | 15 | – | –
3 | CIRBP: host protein, UniProt Q14011 (protein, UniProt Q14011 1-172, looked up) Cold-inducible RNA-binding …: MASDEGKLFVGGLSFDTNEQSLEQVFSKYGQISEVVVVKDRETQRSRGFGFVTFENIDDAKDAMMAMNGKSVDGRQIRVDQAGKSSDNRSRGYRGGSAGGRGFFRGGRGRGRGFSRGGGDRGYGGNRFESRSGGYGGSRDYYSSRSQSGGYSDRSSGGSYRDSYDSYATHNE | 12 | 15 | 1 | 9 | 1 | – | 7 | 12 | 1 | 13 | 2 | – | – | –
4 | RBM14: host protein, UniProt Q96PK6 (protein, UniProt Q96PK6 1-669, looked up) RNA-binding protein 14: MKIFVGNVDGADTTPEELAALFAPYGTVMSCAVMKQFAFVHMRENAGALRAIEALHGHELRPGRALVVEMSRPRPLNTWKIFVGNVSAACTSQELRSLFERRGRVIECDVVKDYAFVHMEKEADAKAAIAQLNGKEVKGKRINVELSTKGQKKGPGLAVQSGDKTKKPGAGDTAFPGTGGFSATFDYQQAFGNSTGGFDGQARQPTPPFFGRDRSPLRRSPPRASYVAPLTAQPATYRAQPSVSLGAAYRAQPSASLGVGYRTQPMTAQAASYRAQPSVSLGAPYRGQLASPSSQSAAASSLGPYGGAQPSASALSSYGGQAAAASSLNSYGAQGSSLASYGNQPSSYGAQAASSYGVRAAASSYNTQGAASSLGSYGAQAASYGAQSAASSLAYGAQAASYNAQPSASYNAQSAPYAAQQAASYSSQPAAYVAQPATAAAYASQPAAYAAQATTPMAGSYGAQPVVQTQLNSYGAQASMGLSGSYGAQSAAAATGSYGAAAAYGAQPSATLAAPYRTQSSASLAASYAAQQHPQAAASYRGQPGNAYDGAGQPSAAYLSMSQGAVANANSTPPPYERTRLSPPRASYDDPYKKAVAMSKRYGSDRRLAELSDYRRLSESQLSFRRSPTKSSLDYRRLPDAHSDYARYSGSYNDYLRAAQMHSGYQRRM | 9 | 10 | 1 | 19 | 2 | 14 | – | 17 | 2 | – | – | 5 | 20 | 2
5 | TRA2B: host protein, UniProt P62995 (protein, UniProt P62995 2-288, looked up) Transformer-2 protein homolog …: SDSGEQNYGERESRSASRSGSAHGSGKSARHTPARSRSKEDSRRSRSKSRSRSESRSRSRRSSRRHYTRSRSRSRSHRRSRSRSYSRDYRRRHSHSHSPMSTRRRHVGNRANPDPNCCLGVFGLSLYTTERDLREVFSKYGPIADVSIVYDQQSRRSRGFAFVYFENVDDAKEAKERANGMELDGRRIRVDFSITKRPHTPTPGIYMGRPTYGSSRRRDYYDRGYDRGYDDRDYYSRSYRGGGGGGGGWRAAQDRDQIYRRRSPSPYYSRGGYRSRSRSRSYSPRRY | 13 | 8 | 1 | 10 | 2 | 15 | – | 12 | 2 | 15 | 2 | 5 | – | –
6 | RBM47: host protein, UniProt A0AV96 (protein, UniProt A0AV96 1-593, looked up) RNA-binding protein 47: MTAEDSTAAMSSDSAAGSSAKVPEGVAGAPNEAALLALMERTGYSMVQENGQRKYGGPPPGWEGPHPQRGCEVFVGKIPRDVYEDELVPVFEAVGRIYELRLMMDFDGKNRGYAFVMYCHKHEAKRAVRELNNYEIRPGRLLGVCCSVDNCRLFIGGIPKMKKREEILEEIAKVTEGVLDVIVYASAADKMKNRGFAFVEYESHRAAAMARRKLMPGRIQLWGHQIAVDWAEPEIDVDEDVMETVKILYVRNLMIETTEDTIKKSFGQFNPGCVERVKKIRDYAFVHFTSREDAVHAMNNLNGTELEGSCLEVTLAKPVDKEQYSRYQKAARGGGAAEAAQQPSYVYSCDPYTLAYYGYPYNALIGPNRDYFVKAGSIRGRGRGAAGNRAPGPRGSYLGGYSAGRGIYSRYHEGKGKQQEKGYELVPNLEIPTVNPVAIKPGTVAIPAIGAQYSMFPAAPAPKMIEDGKIHTVEHMISPIAVQPDPASAAAAAAAAAAAAAAVIPTVSTPPPFQGRPITPVYTVAPNVQRIPTAGIYGASYVPFAAPATATIATLQKNAAAAAAMYGGYAGYIPQAFPAAAIQVPIPDVYQTY | 12 | – | 1 | 26 | 2 | 31 | – | 27 | 2 | 31 | 6 | 10 | 28 | 5
7 | HNRNPA0 (protein, UniProt Q13151 1-305, looked up) Heterogeneous nuclear …: MENSQLCKLFIGGLNVQTSESGLRGHFEAFGTLTDCVVVVNPQTKRSRCFGFVTYSNVEEADAAMAASPHAVDGNTVELKRAVSREDSARPGAHAKVKKLFVGGLKGDVAEGDLIEHFSQFGTVEKAEIIADKQSGKKRGFGFVYFQNHDAADKAAVVKFHPIQGHRVEVKKAVPKEDIYSGGGGGGSRSSRGGRGGRGRGGGRDQNGLSKGGGGGYNSYGGYGGGGGGGYNAYGGGGGGSSYGGSDYGNGFGGFGSYSQHQSSYGPMKSGGGGGGGGSSWGGRSNSGPYRGGYGGGGGYGGSSF | 12 | 9 | 1 | 12 | 2 | 12 | – | 13 | 2 | – | – | – | – | –
